Source: the supplement of paper PMC10567573

B1: IKZF1 (parent)
chain: HIKLHSGEKPFKCHLCNYACRRRD
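Further: lentivirally expressed fusions sorted by FACS into six bins by GFP to DsRed ratio, PSI derived from sequencing read proportions per bin multiplied by bin number.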

Variants of: B1
Experiment: protein stability index of a GFP-peptide fusion (GPS, HEK-293T) (PSI 1-6); higher = more stable
Details: c terminus: a fixed tail appended
With HIKLHSQEKPFKCHLCNYACRRRD [G7Q] the protein stability index was 2.16. HIKLHSFEKPFKCHLCNYACRRRD [G7F] gave a protein stability index of 2.21. Variant HIKLHSPEKPFKCHLCNYACRRRD [G7P] has a protein stability index of 2.19. With HIKLHSSEKPFKCHLCNYACRRRD [G7S] the protein stability index was 1.63. Work on HIKLHSWEKPFKCHLCNYACRRRD [G7W] yielded a protein stability index of 2. With HIKLHSKEKPFKCHLCNYACRRRD [G7K] the protein stability index was 2.47. HIKLHSDEKPFKCHLCNYACRRRD [G7D] gave a protein stability index of 2.25. HIKLHSTEKPFKCHLCNYACRRRD [G7T] showed a protein stability index of 1.15. With HIKLHSREKPFKCHLCNYACRRRD [G7R] the protein stability index was 2.08. For HIKLHSEEKPFKCHLCNYACRRRD [G7E], the protein stability index was 2.62. With HIKLHSYEKPFKCHLCNYACRRRD [G7Y] the protein stability index was 2.25. HIKLHSCEKPFKCHLCNYACRRRD [G7C] gave a protein stability index of 2.58. For HIKLHSAEKPFKCHLCNYACRRRD [G7A], the protein stability index was 2.2. Work on HIKLHSVEKPFKCHLCNYACRRRD [G7V] yielded a protein stability index of 3.09. HIKLHSHEKPFKCHLCNYACRRRD [G7H] showed a protein stability index of 1.97. HIKLHSMEKPFKCHLCNYACRRRD [G7M] showed a protein stability index of 1.78. HIKLHSNEKPFKCHLCNYACRRRD [G7N] gave a protein stability index of 1.18. HIKLHSIEKPFKCHLCNYACRRRD [G7I] gave a protein stability index of 1.68. HIKLHSLEKPFKCHLCNYACRRRD [G7L] gave a protein stability index of 1.73. HIKLHSGTKPFKCHLCNYACRRRD [E8T] gave a protein stability index of 1.59. In the case of HIKLHSGRKPFKCHLCNYACRRRD [E8R], the protein stability index is reported as 1.33. HIKLHSGPKPFKCHLCNYACRRRD [E8P] showed a protein stability index of 2.17. In the case of HIKLHSGDKPFKCHLCNYACRRRD [E8D], the protein stability index is reported as 1.72. HIKLHSGKKPFKCHLCNYACRRRD [E8K] gave a protein stability index of 1.5. In the case of HIKLHSGHKPFKCHLCNYACRRRD [E8H], the protein stability index is reported as 1.93. With HIKLHSGCKPFKCHLCNYACRRRD [E8C] the protein stability index was 1.97. Work on HIKLHSGWKPFKCHLCNYACRRRD [E8W] yielded a protein stability index of 2.28. Variant HIKLHSGGKPFKCHLCNYACRRRD [E8G] has a protein stability index of 2.85. HIKLHSGLKPFKCHLCNYACRRRD [E8L] showed a protein stability index of 1.79. HIKLHSGVKPFKCHLCNYACRRRD [E8V] gave a protein stability index of 2.13. For HIKLHSGSKPFKCHLCNYACRRRD [E8S], the protein stability index was 2.22. HIKLHSGMKPFKCHLCNYACRRRD [E8M] showed a protein stability index of 1.63. With HIKLHSGYKPFKCHLCNYACRRRD [E8Y] the protein stability index was 2.06. For HIKLHSGAKPFKCHLCNYACRRRD [E8A], the protein stability index was 1.92. HIKLHSGQKPFKCHLCNYACRRRD [E8Q] showed a protein stability index of 1.56. HIKLHSGIKPFKCHLCNYACRRRD [E8I] showed a protein stability index of 1.74. For HIKLHSGFKPFKCHLCNYACRRRD [E8F], the protein stability index was 1.72. HIKLHSGNKPFKCHLCNYACRRRD [E8N] showed a protein stability index of 1.25. For HISLHSGEKPFKCHLCNYACRRRD [K3S], the protein stability index was 1.91. Variant HILLHSGEKPFKCHLCNYACRRRD [K3L] has a protein stability index of 1.99. HIPLHSGEKPFKCHLCNYACRRRD [K3P] gave a protein stability index of 3.67. In the case of HIFLHSGEKPFKCHLCNYACRRRD [K3F], the protein stability index is reported as 2.38. With HIMLHSGEKPFKCHLCNYACRRRD [K3M] the protein stability index was 1.51. Variant HIYLHSGEKPFKCHLCNYACRRRD [K3Y] has a protein stability index of 1.69. With HINLHSGEKPFKCHLCNYACRRRD [K3N] the protein stability index was 2.11. For HIQLHSGEKPFKCHLCNYACRRRD [K3Q], the protein stability index was 2.03. HIWLHSGEKPFKCHLCNYACRRRD [K3W] gave a protein stability index of 2.73. With HIRLHSGEKPFKCHLCNYACRRRD [K3R] the protein stability index was 1.88. Variant HIILHSGEKPFKCHLCNYACRRRD [K3I] has a protein stability index of 1.61. Variant HIHLHSGEKPFKCHLCNYACRRRD [K3H] has a protein stability index of 2.44. HIALHSGEKPFKCHLCNYACRRRD [K3A] gave a protein stability index of 1.58. Work on HIDLHSGEKPFKCHLCNYACRRRD [K3D] yielded a protein stability index of 1.95. For HICLHSGEKPFKCHLCNYACRRRD [K3C], the protein stability index was 2.56. For HIGLHSGEKPFKCHLCNYACRRRD [K3G], the protein stability index was 2.38. Work on HIVLHSGEKPFKCHLCNYACRRRD [K3V] yielded a protein stability index of 1.83. Variant HIELHSGEKPFKCHLCNYACRRRD [K3E] has a protein stability index of 1.8. Work on HITLHSGEKPFKCHLCNYACRRRD [K3T] yielded a protein stability index of 1.9. Work on HIKLHSGEKQFKCHLCNYACRRRD [P10Q] yielded a protein stability index of 1.43. Work on HIKLHSGEKLFKCHLCNYACRRRD [P10L] yielded a protein stability index of 1.76. HIKLHSGEKSFKCHLCNYACRRRD [P10S] gave a protein stability index of 1.75. Work on HIKLHSGEKFFKCHLCNYACRRRD [P10F] yielded a protein stability index of 1.91. Variant HIKLHSGEKNFKCHLCNYACRRRD [P10N] has a protein stability index of 2.16. HIKLHSGEKDFKCHLCNYACRRRD [P10D] gave a protein stability index of 2.14. For HIKLHSGEKWFKCHLCNYACRRRD [P10W], the protein stability index was 2.31. Work on HIKLHSGEKRFKCHLCNYACRRRD [P10R] yielded a protein stability index of 1.74. Work on HIKLHSGEKCFKCHLCNYACRRRD [P10C] yielded a protein stability index of 1.76. Variant HIKLHSGEKKFKCHLCNYACRRRD [P10K] has a protein stability index of 2.73. HIKLHSGEKAFKCHLCNYACRRRD [P10A] gave a protein stability index of 1.55. Work on HIKLHSGEKVFKCHLCNYACRRRD [P10V] yielded a protein stability index of 2.26. For HIKLHSGEKIFKCHLCNYACRRRD [P10I], the protein stability index was 2.19. Work on HIKLHSGEKYFKCHLCNYACRRRD [P10Y] yielded a protein stability index of 2.88. HIKLHSGEKEFKCHLCNYACRRRD [P10E] showed a protein stability index of 1.07. HIKLHSGEKHFKCHLCNYACRRRD [P10H] gave a protein stability index of 1.67. For HIKLHSGEKGFKCHLCNYACRRRD [P10G], the protein stability index was 1.93. In the case of HIKLHSGEKTFKCHLCNYACRRRD [P10T], the protein stability index is reported as 1.84. With HIKLHSGEKMFKCHLCNYACRRRD [P10M] the protein stability index was 1.58. HIKLHSGEMPFKCHLCNYACRRRD [K9M] showed a protein stability index of 2.1. For HIKLHSGEDPFKCHLCNYACRRRD [K9D], the protein stability index was 2.8. Variant HIKLHSGELPFKCHLCNYACRRRD [K9L] has a protein stability index of 1.86. In the case of HIKLHSGEGPFKCHLCNYACRRRD [K9G], the protein stability index is reported as 2.12. HIKLHSGENPFKCHLCNYACRRRD [K9N] showed a protein stability index of 1.79. For HIKLHSGECPFKCHLCNYACRRRD [K9C], the protein stability index was 2.79. Variant HIKLHSGETPFKCHLCNYACRRRD [K9T] has a protein stability index of 1.42. HIKLHSGEPPFKCHLCNYACRRRD [K9P] gave a protein stability index of 1.9. For HIKLHSGEIPFKCHLCNYACRRRD [K9I], the protein stability index was 2.23. With HIKLHSGESPFKCHLCNYACRRRD [K9S] the protein stability index was 2.17. With HIKLHSGEFPFKCHLCNYACRRRD [K9F] the protein stability index was 1.97. Variant HIKLHSGERPFKCHLCNYACRRRD [K9R] has a protein stability index of 1.81. With HIKLHSGEWPFKCHLCNYACRRRD [K9W] the protein stability index was 1.26. HIKLHSGEEPFKCHLCNYACRRRD [K9E] showed a protein stability index of 2.02. For HIKLHSGEHPFKCHLCNYACRRRD [K9H], the protein stability index was 3.3. In the case of HIKLHSGEQPFKCHLCNYACRRRD [K9Q], the protein stability index is reported as 1.88. In the case of HIKLHSGEYPFKCHLCNYACRRRD [K9Y], the protein stability index is reported as 1.58. For HIKLHSGEAPFKCHLCNYACRRRD [K9A], the protein stability index was 2.11.
